The values that follow come from paper PMC7846482 (The Journal of Biological Chemistry, 2021).

Holding throughout (details): both partners purified
For assay [1], the target named is T1, SARS-CoV-2 spike receptor-binding domain (RBD) glycoprotein from the mammalian expression system (SARS-CoV-2 Wuhan-Hu-1, UniProt P0DTC2). As to the kind of experiment: western blotting. On the technique in general: A western blot detects proteins with antibodies after separation by electrophoresis.
Assay [2] has as its target T1, SARS-CoV-2 spike receptor-binding …. As to the kind of experiment: ELISA. (In general: In an ELISA, binding on a coated surface is turned into a signal by an enzyme label.)
The target is the same in assay [3]. Kind of assay: co-IP.

B1: mouse anti-SARS-CoV-2 spike monoclonal antibody clone R52 (antibody, V domains shown)
VH: QIQLVQSGPELKKPGETVKISCKASGYTFTNYGMNWVKQAPGNGLRWMGWINTYTREPSYAADFKGRFAFSLETSARAAYLQINNLKNEDTATYFCARNGAMDYWGQGTSVTVSS
VL: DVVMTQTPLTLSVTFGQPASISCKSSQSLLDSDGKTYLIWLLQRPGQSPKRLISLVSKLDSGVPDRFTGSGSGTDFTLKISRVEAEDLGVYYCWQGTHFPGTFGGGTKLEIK
With B1, in assay [1], the binding result was “binds”.

B2: mouse anti-SARS-CoV-2 spike monoclonal antibody clone R15 (antibody, V domains shown)
VH: QIQLVQSGPELKKPGETVKISCKASGYTFTKYGINWVKQAPGKDLKWMGWINTYTGEPAYGDDFKGRFAFSLETSTNTAYLQINNFKNEDTATYFCARNGAMDYWGQGTSVTVSS
VL: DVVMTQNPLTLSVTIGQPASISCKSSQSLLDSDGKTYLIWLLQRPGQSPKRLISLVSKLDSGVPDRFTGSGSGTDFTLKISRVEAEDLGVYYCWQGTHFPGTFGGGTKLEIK
For B2, the binding result in assay [2] is “binds”.

B3: mouse anti-SARS-CoV-2 spike monoclonal antibody clone S1D7 (antibody, V domains shown)
VH: QVQLQQSGAELVKPGASVKLSCKASGYTFTSYYIYWMKQRPGQGLEWIGEINPNNGGTNFNEKFKSKATLTVDKSSSTAYMQLSSLTSEDSAVYYCTRGHSDYWGQGTTLTVSS
VL: DIVLTQSPASLAVSLGQRATISCRASESVEYYGTGLMQWYQQKPGQPPKLLIYAASNVESGVPARFSGSGSGTDFSLNIHPVEEDDIAMYFCQQTRKVPYTFGGGTKLEIK
On to B3, for which the binding result in assay [3] is given as “binds”.

B4: mouse anti-SARS-CoV-2 spike monoclonal antibody clone S3D8 (antibody, V domains shown)
VH: QVQLQQSGAELVKPGASVKLSCKASGYTFTSYYMYWMKQRPGQGLEWIGEINPSNGGTNFNEKFKSKATLTVDKSSSTAYMQLSSLTSEDSAVYYCTIFITRDAMDYWGQGTSVTVSS
VL: QIVLTQSPAIMSASPGEKVTLTCSASSSVSSSYLFWYQQKPGSSPKLWIYTTSNLASGVPARFSGSGSGTSYSLTISSMEAEDAASYFCHQWSSYPPTFGAGTKLELK
Turning to B4, the binding result in assay [3] is recorded as “binds”.

B5: mouse anti-SARS-CoV-2 spike monoclonal antibody clone R22 (antibody, V domains shown)
VH: EVQLQQSGPELVRPGASVKISCKTSGYTFTEYIIHWVKQSHGKSLEWIGGIDPNNGDTSYNQKFKGKASLTVDKSSSTAYMELRSLTSDDSAVYYCARLDFDYWGQGTTLTVSS
VL: DIVMTQSHKFMSTSVGDRVSITCKASQDVRTAVAWYQQKPGQSPKLLIYWASTRYTGVPDRFTGSGSGTDYTLTISSVQAEDLALYYCQQHDSTPLTFGAGTKLELK
For B5, the binding result in assay [1] was “binds”.

B6: mouse anti-SARS-CoV-2 spike monoclonal antibody clone R31 (antibody, V domains shown)
VH: QVQLQQSGAELVRPGTSVKISCKASYTFTNYWLAWVKQRPGHGLEWIGDIYPGGAYTNFNEKFKGKATLTADTSSSTAYMQLSSLTSEDSAVYFCARDGHYGYAMDYWGQGTSVTVSS
VL: DIVMTQAAFSNPVTLGTSASISCRSSKSLLHSNGITYLYWYLQKPGQSPQLLIYQMSDLASGVPDRFSSSGSGTDFTLRISRVEAEDVGVYYCAQNLELPRTFGGGIKLEIK
As for B6, in assay [1], the binding result was “binds”.
